# According to the supplement of paper PMC9170038:
# Tested on: MS2 coat protein
# Assay: apparent KD of MS2 coat protein; designed switch direction (-1 OFF switch, 1 ON switch): -1; higher = weaker reporter binding
# Procedure, shortened: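 Three titration conditions were used: no input, 200 uM small-molecule ligand, and an oligonucleotide input. In each, SNAP-549-labelled MS2 coat protein was raised from 0.7 or 1.5 nM, doubling, to 3 µM over designed RNA switches transcribed on Illumina chips by stalled E. coli RNA polymerase. Curve fits of normalised cluster fluorescence gave values whose per-design median over clusters is the apparent KD.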
# [1] = input ligand: microRNA oligo, concentration not stated
# [2] = Eterna round: R95, input ligand: microRNA oligo, concentration not stated
# [3] = Eterna round: R95, input ligand: FMN 200 uM
# [4] = Eterna round: R95, input ligand: none
Sequence,apparent KD of MS2 coat protein (input ligand: FMN 200 uM) [nM],apparent KD of MS2 coat protein (input ligand: none) [nM],apparent KD of MS2 coat protein [1] [nM],apparent KD of MS2 coat protein [2] [nM],apparent KD of MS2 coat protein [3] [nM],apparent KD of MS2 coat protein [4] [nM]
"GGAGGAAGAGAGGAUAUGCACUCAAGGAGAAAAGCAGAAGGUUCAACAUGAGGAUCACCCAUGUAUGAUCCUCA [AK-MS2ROC-r4-exclusion6-3] (Eterna round: R97, puzzle: Exclusion 6)",247,197,–,–,–,–
"GGAGGACGAGCAGGAUAUUUUUACAUGAGGAUCACCCAUGUGUAAUCAGGGUAAUCCUCCACCGAAAAGAAGGGUUCGGAAGAA [Mat - Exclusion NG 2 - Mod of JL - D84] (Eterna round: R96, puzzle: Exclusion NG 2)",18.1,70.6,9.17,–,–,–
"GGAGGAGAGGUAAGGAUAUGGUGGUGGAAACACCACCAGAAGGUACAUGAGGAUCACCCAUGUAAGGAAGGAGG [AK-MS2ROC-r4-Bmoexclusion4-17.1] (Eterna round: R97, puzzle: Brourd's mod of Exclusion 4)",26.7,26.6,–,–,–,–
"GGAUAAAACUGAGGAUAUGCGUAUCGCUAGCGAGCAGAAGGCAGACAUGAGGAUCACCCAUGUGAGUUCUCGAUAAGAAACACG [Prohibition 59 - Jieux - Exclusion NG 1] (Eterna round: R96, puzzle: Exclusion NG 1)",145,57.7,54.8,–,–,–
"GGAUAUAACGUAGGAUAUCUGAGAAACAGACGAAGAGAAGGACGACAUGAGGAUCACCCAUGUGAUCUAUCAAUAUUAUACAUG [Prohibition 99 - Jieux - Exclusion NG 1] (Eterna round: R96, puzzle: Exclusion NG 1)",412,351,330,–,–,–
"GGAUCACAUGUGAGGAUAUGCUGGUCCUUGGAUCAGCAGAAGGCACAUGAGGAUCACCCAUGUGAUCAAGAUCC [Eli bmx4 4.78] (Eterna round: R97, puzzle: Brourd's mod of Exclusion 4)",22.2,37.1,–,–,–,–
GGAUCAUGAGGAUAUCGAGGUUAGUACAUGAGGAUCACCCAUGUUAUCCAGGUCUCGUUUCGAGAAGGCAUGAUCC [LRO-Ex5-10] (puzzle: Exclusion 5),–,–,–,21.2,–,–
"GGAUCGAGUGUGAGGAUAUGCUGGUCCUUGGAUCAGCAGAAGGCACAUGAGGAUCACCCAUGUGAUCAAGAUCC [Eli bmx4 4.76] (Eterna round: R97, puzzle: Brourd's mod of Exclusion 4)",50.9,712,–,–,–,–
"GGAUGAGGAGUGAGGAUAUCGUGUUCGAAAGAACGUGAGAAGGCACAUGAGGAUCACCCAUGUGAUCCUCAUCG [Omei Ex4B A22] (Eterna round: R97, puzzle: Brourd's mod of Exclusion 4)",365,59.6,–,–,–,–
"GGAUUUUCUGAGGAUAUUGCAUCACCCGAUUUAUAAGAAGGCAGAACAUGAGGAUCACCCAUGUGGGUCUCUAG [Bingo-Bango-26] (Eterna round: R97, puzzle: Exclusion 6)",30.6,24.5,–,–,–,–
"GGCACACAUGAGGAUCACCCAUGUGAGGAUAUGGUGCGAUCGUCGAUAGACGAUAGCACUAGAAGGCACAUGCC [Mat - Exclusion 1 - Eli Mod - D6] (Eterna round: R97, puzzle: Exclusion 1)",25.5,17.8,–,–,–,–
"GGCACACAUGAGGAUCACCCAUGUGAGGAUAUGUGGCGAUCGUCGAAAGACGAUAGCCACAGAAGGCACAGGCC [Eli x1 4.24] (Eterna round: R97, puzzle: Exclusion 1)",21.4,17.8,–,–,–,–
"GGCAUCAUCUGGUCCUGAUACAUGAGGAUCACCCAUGUUCUACUGUAGGUCGUAAGCAGCUUACCCUCUUAGGCACA [JR_Sensorv2_tov_Sub1249] (Eterna round: R96, puzzle: Sensor v2, turn-off variant)",380,308,227,–,–,–
"GGCAUGCAAGGAUAUACUUGCAGUGAUGUUCGAUAAAUUCUACUUGAGGAUCACCCAAGUAGAAGGUGCAUGCC [Exclusion 2 (Mod4 JL EX2 4.74 Vienna UCT mod of Mamaed)] (Eterna round: R97, puzzle: Exclusion 2)",15.2,27.3,–,–,–,–
"GGCAUGUAAGGAUAUGCCACGCAGGCCUUUGGCCUGCGUAAGCAGAAGGUACAUGAGGAUCACCCAUGUGAUAA [jl-ex4-4.57 ViennaUCT mod] (Eterna round: R97, puzzle: Exclusion 4)",129,727,–,–,–,–
"GGCAUGUAAGGAUAUGUGAAGGGAAGGAGAGGGAGAGGGAAGCAGAAGGUACAUGAGGAUCACCCAUGUAAGGG [AK-MS2ROC-r4-exclusion4-5.1] (Eterna round: R97, puzzle: Exclusion 4)",203,108,–,–,–,–
"GGCCCAUGAGGAUAUCAGUCUGGAUCAGACAAGAUCCUGACUGAGAAGGCACAUGAGGAUCACCCAUGUAGGCC [Mat - Exclusion 4 - Eli Mod - D53] (Eterna round: R97, puzzle: Exclusion 4)",18.3,18.7,–,–,–,–
"GGCCCUAAGGUCAGAUCCACAAGCUUUUUGCUCGUUUUAACAUGAGGAUCACCCAUGUCUAGUGGAUCUGAUCCUCA [Sensor v3, turn-off variant 2 (MOD of Indiso v.3)] (puzzle: Sensor v3, turn-off variant 2)",–,–,–,12.1,16.9,20.8
"GGCCCUAAGGUCAGAUUCACAAGCUUUUUGCUCGUUUUAACAUGAGGAUCACCCAUGUCUAGUGGAUUUGAUCCUUU [Sensor v3, turn-off variant 2 (MOD of Indiso v.6)] (puzzle: Sensor v3, turn-off variant 2)",–,–,–,25.4,28.6,34.2
"GGCCUGUGAGGAUAUUAGUAGUAGAUAAAAUAAACUAUUACUGAGAAGGCACAUGAGGAUCACCCAUGUUGGCC [Eli x4 4.05] (Eterna round: R97, puzzle: Exclusion 4)",20.3,16.4,–,–,–,–
GGCUAGUGAGGAUAUACGUGCACUCCUCAGUCGCCAGUCGGACAUGAGGAUCACCCAUGUAGAAGGUAUCGGCA [Qusoceus] (puzzle: Exclusion 2),–,–,–,24,–,–
GGGAACGUAGGAUAUACAUGAGGAUCACCCAUGUGAGGAAGGAGUAGGAAGCGUGGAAGUAGAAGGACGGAGAG [JR_Exclu3_Sub074] (puzzle: Exclusion 3),–,–,–,31.5,40.6,46.4
"GGGCCCGGAGGAUAUACAAUUUUGGGCCGAAAGGCCCGGGUACAUGAGGAUCACCCAUGUAGAAGGCCGGGCCC [-41.7, -39.1 kcal A 24%, 5a,0] (Eterna round: R97, puzzle: Exclusion 2)",134,32.4,–,–,–,–
"GGGCCCGGUGUGAGGAUAUGAGUUCGGAAAUGAGCUUAGAAGGCACAUGAGGAUCACCCAUGUAAGCCGGGCCC [-34.2, -32.1 kcal, A 26%, 1-0] (Eterna round: R97, puzzle: Brourd's mod of Exclusion 4)",14.3,35.6,–,–,–,–
"GGGCUCGGAGGAUAUACAUGAGGAUCACCCAUGUAGGGCCCGGGUAUUCCCGGGCCCUGUAGAAGGCUGGGUCU [-39, -36.1 kcal, A 19%, 0-7] (Eterna round: R97, puzzle: Exclusion 3)",19.7,16.5,–,–,–,–
"GGGUGACAUGAGGAUCACCCAUGUCAGGAUAUGCUUCGGCUUCGGAAAUGAAGUUGAAGUAGAAGGGACUGCCC [-30.1, -29.1 kcal, A 27% sequence 3 bis] (Eterna round: R97, puzzle: Exclusion 1)",84.4,42.2,–,–,–,–
"GGGUGACAUGAGGAUCACCCAUGUCAGGAUAUGGGCCCGGGCCCGAAAGGGCCCGGGUUUAGAAGGGACUGCCC [-44.4, -43.4 kcal, 22%A (-3 GC series)] (Eterna round: R97, puzzle: Exclusion 1)",59.3,42.9,–,–,–,–
"GGGUGCAGGCUAAGAUCCUACAUGAGGAUCACCCAUGUGGUCCGGUGACGUGAGUCACCGGACUUAGCUCGUCUUGU [salish99_S_TOV1_R5_006] (Eterna round: R97, puzzle: Sensor, turn-off variant 1)",133,142,–,–,–,–
"GGGUGCAGGCUGGGAUCCUACAUGAGGAUCACCCAUGUGGUCCGGUGACGUGAGUCACCGGACUUAGCUCGUCUUGU [salish99_S_TOV1_R5_008] (Eterna round: R97, puzzle: Sensor, turn-off variant 1)",569,865,–,–,–,–
